Source: US20250011363A1, “OPTIMIZED SHORTENED PEPTIDE THAT BINDS TO ACETYLCHOLINE RECEPTOR, AND USE THEREOF” (SKINMED CO., LTD., priority 2021, published 2025)
Like-named read-outs stand apart in the source and are kept apart here. Residues, ends and D or L forms follow the SMILES beside them. No end group written: not given here. *: point of attachment. Palmitoyl = CCCCCCCCCCCCCCCC(=O)*

Tests used:
acetylcholine receptor [1] = molecular target: T1, acetylcholine receptor (Homo sapiens, UniProt P02708); assay: SPR (Biacore) affinity of shortened Espep2 peptides, Examples 1-2; assay type: binding; conditions: FIG. 3
T1 sequence (P02708 21-457): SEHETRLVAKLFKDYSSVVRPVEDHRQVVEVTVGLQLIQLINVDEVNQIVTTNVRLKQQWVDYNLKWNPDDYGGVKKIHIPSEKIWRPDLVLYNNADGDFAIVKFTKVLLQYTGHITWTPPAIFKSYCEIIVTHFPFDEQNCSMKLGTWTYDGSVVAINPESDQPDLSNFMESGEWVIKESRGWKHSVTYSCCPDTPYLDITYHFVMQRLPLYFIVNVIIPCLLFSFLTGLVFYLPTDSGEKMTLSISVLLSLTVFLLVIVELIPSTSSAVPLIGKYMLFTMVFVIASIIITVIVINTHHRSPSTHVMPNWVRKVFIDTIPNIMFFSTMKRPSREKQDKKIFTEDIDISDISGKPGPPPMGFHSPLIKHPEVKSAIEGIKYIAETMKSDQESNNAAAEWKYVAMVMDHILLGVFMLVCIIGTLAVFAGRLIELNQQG

acetylcholine receptor [2] = molecular target: T1, acetylcholine receptor; assay: as above; assay type: binding; conditions: for higher affinity compared to Synake: SPR, FIG. 1
Procedure: To construct an optimized shortened library from the previous Espep2 peptide, assessment was made of the affinity of peptides having sequences sequentially removed from the N- and C-terminals. Initially, surface plasmon resonance (SPR) experiments were conducted using a biosensor chip (Biacore3000, Biacore AB, Uppsala, Sweden). Selected acetylcholine receptor proteins were immobilized on a CM5 chip (Biacore) using EDC/NHS and observed for association and dissociation for up to 500 seconds. The observation conditions were set forth as follows: running buffer 20 mM Tris (pH 7.4), rate 30 ul/min, concentration 20 μM (peptide), and the results are depicted in FIG. 1.
To identify the crucial sequences in the shortened peptides, alanine scanning was conducted. Wild-type (WT) Espep2-6mer (RKSLLR) and Espep2-5mer (KSLLR) peptides were synthesized with each amino acid sequentially substituted with alanine (Ala, A), and their affinity was measured using the same method as in Example 1. The measurements are depicted in FIG. 2 after normalization to WT.
Moreover, among the six amino acids in the RKSLLR sequence, R residues at the N and C terminals are crucial.

acetylcholine receptor [3] = molecular target: T1, acetylcholine receptor; assay: SPR binding affinity (RU) of optimized 5mer/6mer/7mer peptides, Examples 6-7
How it was run: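 Peptides were tested at 10 μM by surface plasmon resonance against the receptor, with binding reported as response units. Library sequences were built from frequent (top) or infrequent (bottom) amino acid combinations in 5mer, 6mer-1 and 6mer-2 series.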

[4] = molecular target: T2, Acetylcholine receptor-overexpressing TE671 cells (Homo sapiens, UniProt P02708); assay: Calcium imaging (Fura-2-AM) of nicotine response, acetylcholine receptor inhibition; assay type: cell-based; conditions: for concentration at which acetylcholine receptors were inhibited: TE671 cells, nicotine 400 uM, calcium imaging; for inhibition at 1 µM: TE-671
T2 construct: endogenous in cells; host or cells: TE671 cells
T2 sequence (P07510 23-517): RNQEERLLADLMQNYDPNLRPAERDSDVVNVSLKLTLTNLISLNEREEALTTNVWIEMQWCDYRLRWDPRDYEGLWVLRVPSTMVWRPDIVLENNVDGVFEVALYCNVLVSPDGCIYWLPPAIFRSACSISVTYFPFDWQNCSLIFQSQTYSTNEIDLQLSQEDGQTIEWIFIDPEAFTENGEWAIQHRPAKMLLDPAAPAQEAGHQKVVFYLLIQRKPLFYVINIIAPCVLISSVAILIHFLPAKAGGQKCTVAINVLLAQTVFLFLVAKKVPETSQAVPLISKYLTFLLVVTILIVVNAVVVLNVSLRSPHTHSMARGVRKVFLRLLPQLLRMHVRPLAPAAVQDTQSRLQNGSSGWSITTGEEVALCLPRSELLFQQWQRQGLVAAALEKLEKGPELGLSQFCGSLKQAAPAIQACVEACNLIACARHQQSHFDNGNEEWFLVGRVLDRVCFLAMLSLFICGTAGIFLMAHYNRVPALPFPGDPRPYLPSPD
T2 sequence (P11230 24-501, further chain): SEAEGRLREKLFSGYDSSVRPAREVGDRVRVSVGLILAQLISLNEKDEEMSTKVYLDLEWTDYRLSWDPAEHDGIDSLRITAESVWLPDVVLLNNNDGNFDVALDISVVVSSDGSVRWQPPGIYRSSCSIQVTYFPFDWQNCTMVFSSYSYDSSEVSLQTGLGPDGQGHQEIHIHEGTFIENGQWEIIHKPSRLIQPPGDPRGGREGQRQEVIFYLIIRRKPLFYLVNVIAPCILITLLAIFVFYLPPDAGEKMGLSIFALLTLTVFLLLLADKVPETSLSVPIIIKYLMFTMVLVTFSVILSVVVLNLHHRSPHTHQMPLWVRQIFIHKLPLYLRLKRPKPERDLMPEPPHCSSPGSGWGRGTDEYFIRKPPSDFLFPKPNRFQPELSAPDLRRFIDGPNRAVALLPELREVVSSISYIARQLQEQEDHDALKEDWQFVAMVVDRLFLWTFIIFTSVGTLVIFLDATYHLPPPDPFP
T2 sequence (Q07001 22-517, further chain): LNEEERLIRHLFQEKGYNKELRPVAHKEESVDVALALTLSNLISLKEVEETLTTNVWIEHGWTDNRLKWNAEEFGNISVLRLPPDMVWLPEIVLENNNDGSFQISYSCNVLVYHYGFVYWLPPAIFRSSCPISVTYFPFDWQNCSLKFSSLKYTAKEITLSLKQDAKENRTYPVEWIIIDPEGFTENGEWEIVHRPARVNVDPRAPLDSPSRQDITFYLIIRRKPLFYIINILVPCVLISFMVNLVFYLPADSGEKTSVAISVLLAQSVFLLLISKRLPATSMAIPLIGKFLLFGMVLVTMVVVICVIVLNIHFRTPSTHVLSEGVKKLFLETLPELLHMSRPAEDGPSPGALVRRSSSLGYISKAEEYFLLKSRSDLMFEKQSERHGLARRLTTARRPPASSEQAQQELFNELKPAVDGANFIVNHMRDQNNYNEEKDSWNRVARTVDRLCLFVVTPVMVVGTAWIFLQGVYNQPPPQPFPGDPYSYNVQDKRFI
T2 sequence (P02708 21-457): as the sequence (P02708 21-457) above
Procedure: Acetylcholine receptor-overexpressing TE671 cells were cultured at 37° C. in DMEM medium supplemented with 10% FBS and 1% P/S under 5% CO2. After the TE671 cells were sufficiently grown for 4 days, the cells were detached using trypsin and the cell culture was plated in an amount of 1 ml at a density of 2×10^4 cells/well into 12-well cell culture plate with an 18 mm cover-slip lined therein, and cultured for 4 days.
The cover-slip on which the cells had grown was transferred to a fresh 12-well cell culture plate, and 997 μl of HBSS buffer and 3 μl of Fura-2-AM were added and gently mixed, followed by incubation at 37° C., 5% CO2 for 15 minutes. After incubation, the remaining Fura-2-AM was removed by washing 3-4 times with 1 ml of HBSS buffer, and an additional 1 ml was added. The cover-slip with the grown cells was placed in a chamber, and 500 μl of HBSS buffer was dispensed. The final concentration of nicotine was adjusted to 400 µM to observe the calcium imaging reaction. Then, while keeping the nicotine concentration fixed, the concentration of the sample was adjusted to find the inhibiting concentration.
The inhibitory ability of the Palmitate-6mer-1-43 and Palmitate-5mer-73 peptides on the acetylcholine receptor was examined in the same manner as in Example 6. Additionally, the inhibitory ability (IC50) of the optimized short peptides and the palmitate-modified peptides according to the present disclosure against acetylcholine receptor was compared with Synake and is depicted in FIG. 16.

[5] = test system: dermal fibroblast cells isolated from human skin; conditions: 100 nM to 100 μM, 24 hours
Procedure: The optimized shortened peptides according to the present disclosure were assayed for cytotoxicity. In this regard, the cytotoxicity was assessed by the MTT [(3-(4,5-dimethylthiazol-2-yl)-2,5-diphenyltetrazolium bromide] method using dermal fibroblast cells isolated from human skin. The pre-cultured cells were seeded at a concentration of 1×10^5 cells/mL in a 24-well plate and cultured for 18 hours. Subsequently, the medium was removed and the diluted sample was added to the medium free of FBS and incubated for 24 hours, after which the medium was removed and MTT solution was added at a concentration of 1 μg/mL and reacted for 3 hours. Unreacted MTT was removed, and DMSO 100 μL was added to dissolve the formed formazan, and the absorbance at 540 nm was read on an ELISA reader.

[6] = SPR, peptides tested at 10 μM, 6mer-1 Top sequence (top combinations)
[7] = SPR, peptides tested at 10 μM, 5mer Top sequence
[8] = SPR, Resonance Units, peptides tested at 10 μM, 6mer-2 Top sequence (Table 12)
[9] = 6mer-2 Top sequence, SPR, peptides tested at 10 μM
[10] = 6mer-1 Top sequence, SPR, peptides tested at 10 μM
[11] = SPR, Resonance Units, 5mer Bottom sequence (bottom combinations), peptides tested at 10 μM
[12] = SPR, Resonance Units, peptides tested at 10 μM, 6mer-2 Bottom sequence
[13] = SPR, peptides tested at 10 μM, 6mer-1 Bottom sequence (Table 11)
[14] = SPR, Resonance Units, peptides tested at 10 μM, 6mer-2 Top sequence
[15] = SPR, Resonance Units, peptides tested at 10 μM, 6mer-1 Bottom sequence (Table 11)
[16] = SPR, Resonance Units, peptides tested at 10 μM, 6mer-1 Bottom sequence
[17] = SPR, peptides at 10 μM, 6mer-2 Bottom sequence
[18] = SPR, peptides tested at 10 μM, 6mer-1 Top sequence

## RKSLL [5mer-CD]
Acetylcholine receptor [1]
  binding affinity compared to Synake: slightly lower binding affinity compared to Synake

## RKSLLR [Espep2-6mer, RKSLLR]
Acetylcholine receptor [2]
  Kd: 57000 nM
  higher affinity compared to Synake: 40 times
Acetylcholine receptor [3]; SPR, peptides at 10 μM
  Binding affinity (RU): 35 RU
Acetylcholine receptor [1]
  binding affinity compared to Synake: higher affinity than that of Synake
Acetylcholine receptor [1]; peptide 20 μM
  RU value: 177 RU

## RKRIRR [6mer-1-43, RKRIRR]
Acetylcholine receptor [3]
  Kd: 609 nM
Acetylcholine receptor [3]; SPR, peptides at 10 μM
  Binding affinity (RU): 548 RU
Acetylcholine receptor [3]; [6]
  Binding affinity: 548 Ru
[4]
  concentration at which acetylcholine receptors were inhibited: 10 µM
[5]
  cytotoxicity (MTT): non-toxic

## CCCCCCCCCCCCCCCC(=O)N[C@@H](CCCNC(=N)N)C(=O)N[C@@H](CCCNC(=N)N)C(=O)N[C@@H](CCC(N)=O)C(=O)N[C@@H](CCCNC(=N)N)C(=O)N[C@@H](CCCNC(=N)N)C(=O)O [Pal-5mer-73] (Palmitoyl-RRQRR-OH; N-terminus and C-terminus assumed)
[4]
  inhibition at 1 µM: 100%
[5]
  cytotoxicity (MTT): non-toxic

## RRQRR [5mer-73, RRQRR]
[5]
  cytotoxicity (MTT): non-toxic
After 8 hours, 37° C.
  skin permeability: 66.87%

## KSLLR [5mer-ND]
Acetylcholine receptor [3]; SPR, peptides at 10 μM
  Binding affinity (RU): 23 RU
Acetylcholine receptor [1]
  binding affinity compared to Synake: higher binding affinity than Synake

## RSYSR [5mer-311]
Acetylcholine receptor [3]; SPR, peptides at 10 μM
  Binding affinity (RU): 167 RU
Acetylcholine receptor [3]; [7]
  Binding affinity: 167 Ru
[4]
  concentration at which acetylcholine receptors were inhibited: 10 µM

## WTWKGRKSLLR [Espep2-11mer, WTWKGRKSLLR, reference compound]
Acetylcholine receptor [2]
  Kd: 1200 nM
  higher affinity compared to Synake: 1916 times
[4]
  concentration at which acetylcholine receptors were inhibited: 5 µM
Sampled up to 24 hours
  skin permeability: did not permeate at all

## KWRQKR [6mer-2-233]
Acetylcholine receptor [3]; [8]
  Binding affinity: 190 Ru
Acetylcholine receptor [3]; SPR, peptides at 10 μM
  Binding affinity (RU): 190 RU
[4]
  concentration at which acetylcholine receptors were inhibited: 10 µM

## RWRYKR [6mer-2-136]
Acetylcholine receptor [3]; [9]
  Binding affinity: 194 Ru
Acetylcholine receptor [3]; SPR, peptides at 10 μM
  Binding affinity (RU): 194 RU
[4]
  concentration at which acetylcholine receptors were inhibited: 10 µM

## KGRKSLLR [Espep2-8mer, KGRKSLLR]
Acetylcholine receptor [2]
  Kd: 3100 nM
  higher affinity compared to Synake: 740 times

## RRGVRR [6mer-1-210]
Acetylcholine receptor [3]; [10]
  Binding affinity: 184 Ru
Acetylcholine receptor [3]; SPR, peptides at 10 μM
  Binding affinity (RU): 184 RU
[4]
  concentration at which acetylcholine receptors were inhibited: 10 µM

## CCCCCCCCCCCCCCCC(=O)N[C@@H](CCCNC(=N)N)C(=O)N[C@@H](CCCCN)C(=O)N[C@@H](CCCNC(=N)N)C(=O)N[C@H](C(=O)N[C@@H](CCCNC(=N)N)C(=O)N[C@@H](CCCNC(=N)N)C(=O)O)[C@@H](C)CC [Pal-6mer-1-43] (Palmitoyl-RKRIRR-OH; N-terminus and C-terminus assumed)
[4]
  inhibition at 1 µM: 100%
[5]
  cytotoxicity (MTT): non-toxic

## 5mer-718 (RNKKK)
Acetylcholine receptor [3]; [11]
  Binding affinity: 19 Ru

## 6mer-2-157 (RSYRKK)
Acetylcholine receptor [3]; [9]
  Binding affinity: 153 Ru

## 5mer-169 (RWYRK)
Acetylcholine receptor [3]; [7]
  Binding affinity: 61 Ru

## 6mer-2-673 (RFCGRK)
Acetylcholine receptor [3]; [12]
  Binding affinity: 23 Ru

## 6mer-1-945 (RKTSIK)
Acetylcholine receptor [3]; [13]
  Binding affinity: 31 Ru

## 5mer-591 (RVYTK)
Acetylcholine receptor [3]; SPR, peptides tested at 10 μM, 5mer Top sequence (top combinations)
  Binding affinity: 61 Ru

## 6mer-2-437 (KQVCKK)
Acetylcholine receptor [3]; [14]
  Binding affinity: 121 Ru

## 5mer-134 (RQFSK)
Acetylcholine receptor [3]; [7]
  Binding affinity: 61 Ru

## 6mer-1-638 (KKESHR)
Acetylcholine receptor [3]; [15]
  Binding affinity: 20 Ru

## 6mer-1-191 (KKQILK)
Acetylcholine receptor [3]; [6]
  Binding affinity: 139 Ru

## 6mer-2-729 (RCPDKR)
Acetylcholine receptor [3]; [12]
  Binding affinity: 30 Ru

## 6mer-2-544 (KVIQKR)
Acetylcholine receptor [3]; [14]
  Binding affinity: 147 Ru

## 6mer-2-919 (KAKHKR)
Acetylcholine receptor [3]; [12]
  Binding affinity: 27 Ru

## 6mer-1-899 (KRMKWK)
Acetylcholine receptor [3]; [13]
  Binding affinity: 31 Ru

## 6mer-1-1045 (KKTPGR)
Acetylcholine receptor [3]; [16]
  Binding affinity: 27 Ru

## 6mer-2-1113 (KPNFRK)
Acetylcholine receptor [3]; [17]
  Binding affinity: 43 Ru

## 5mer-692 (RDHWK)
Acetylcholine receptor [3]; [11]
  Binding affinity: 15 Ru

## 6mer-1-413 (RKQFCR)
Acetylcholine receptor [3]; [18]
  Binding affinity: 148 Ru

## 3669 (RRGVRRW) [compound 3669]
Acetylcholine receptor [3]; SPR, XRRGVRR-7mer and RRGVRRX-7mer
  Binding affinity, values relative to the RRGVRR sequence: 134

## 5mer-64 (KVVTR)
Acetylcholine receptor [3]; [7]
  Binding affinity: 76 Ru

## 6mer-2-616 (REPHRK)
Acetylcholine receptor [3]; [12]
  Binding affinity: 26 Ru

## 6mer-1-759 (RKMTWR)
Acetylcholine receptor [3]; [15]
  Binding affinity: 23 Ru

## 5mer-129 (KSLLK)
Acetylcholine receptor [3]; [7]
  Binding affinity: 63 Ru

## 6mer-1-574 (RKSYLR)
Acetylcholine receptor [3]; [18]
  Binding affinity: 148 Ru

## 6mer-2-951 (RADEKK)
Acetylcholine receptor [3]; [12]
  Binding affinity: 42 Ru

## 6mer-2-263 (RRICKR)
Acetylcholine receptor [3]; [8]
  Binding affinity: 145 Ru

## 6mer-1-856 (KRMWFK)
Acetylcholine receptor [3]; [13]
  Binding affinity: 30 Ru

## 6mer-1-1102 (KRFTKK)
Acetylcholine receptor [3]; [16]
  Binding affinity: 35 Ru

## 6mer-1-534 (KKRLCR)
Acetylcholine receptor [3]; [18]
  Binding affinity: 126 Ru

## 6mer-1-514 (KKGRSK)
Acetylcholine receptor [3]; [18]
  Binding affinity: 128 Ru

## 6mer-1-1167 (KRHMMK)
Acetylcholine receptor [3]; [16]
  Binding affinity: 42 Ru

## 6mer-1-906 (KKINGK)
Acetylcholine receptor [3]; [13]
  Binding affinity: 30 Ru

## 3640 (RRQRRE) [compound 3640]
Acetylcholine receptor [3]; SPR, XRRQRR-6mer and RRQRRX-6mer
  Binding affinity, relative value to the RRQRR sequence: 37

## 5mer-637 (KCDHK)
Acetylcholine receptor [3]; [11]
  Binding affinity: 28 Ru

## 6mer-1-339 (KKSIQK)
Acetylcholine receptor [3]; [10]
  Binding affinity: 147 Ru

## 6mer-1-1169 (RKMDIR)
Acetylcholine receptor [3]; [16]
  Binding affinity: 32 Ru

## 6mer-2-1126 (RHEVRR)
Acetylcholine receptor [3]; [17]
  Binding affinity: 23 Ru

## 6mer-1-1114 (KKFNFK)
Acetylcholine receptor [3]; [16]
  Binding affinity: 38 Ru

## 6mer-1-656 (RRPTHK)
Acetylcholine receptor [3]; [15]
  Binding affinity: 28 Ru

## 5mer-1072 (KDWPK)
Acetylcholine receptor [3]; [11]
  Binding affinity: 32 Ru

## 6mer-2-1140 (KMNKKR)
Acetylcholine receptor [3]; [17]
  Binding affinity: 29 Ru

## 5mer-402 (RLRYR)
Acetylcholine receptor [3]; [7]
  Binding affinity: 86 Ru

## 6mer-2-178 (KWLLRR)
Acetylcholine receptor [3]; [9]
  Binding affinity: 133 Ru

## 6mer-2-921 (RPKAKK)
Acetylcholine receptor [3]; [12]
  Binding affinity: 22 Ru

## 6mer-1-839 (KRNWAK)
Acetylcholine receptor [3]; [13]
  Binding affinity: 29 Ru

## 6mer-1-223 (KKRRRK)
Acetylcholine receptor [3]; [10]
  Binding affinity: 133 Ru

## 6mer-1-313 (RRWFCK)
Acetylcholine receptor [3]; [10]
  Binding affinity: 148 Ru

## 5mer-1154 (KCWVR)
Acetylcholine receptor [3]; SPR, peptides tested at 10 μM, 5mer Bottom sequence
  Binding affinity: 12 Ru

## 6mer-2-936 (KPPAKK)
Acetylcholine receptor [3]; [12]
  Binding affinity: 21 Ru
